{"source": "paper PMC8683085", "about": "“Serine ADP-ribosylation marks nucleosomes for ALC1-dependent chromatin remodeling” (eLife, 2021)", "binders": {"B1": {"name": "ALC1 (full-length, 6xHis-1xFLAG-ALC1) (enzyme, UniProt Q86WJ1 1-897, looked up)", "chain": "MERAGATSRGGQAPGFLLRLHTEGRAEAARVQEQDLRQWGLTGIHLRSYQLEGVNWLAQRFHCQNGCILGDEMGLGKTCQTIALFIYLAGRLNDEGPFLILCPLSVLSNWKEEMQRFAPGLSCVTYAGDKEERACLQQDLKQESRFHVLLTTYEICLKDASFLKSFPWSVLVVDEAHRLKNQSSLLHKTLSEFSVVFSLLLTGTPIQNSLQELYSLLSFVEPDLFSKEEVGDFIQRYQDIEKESESASELHKLLQPFLLRRVKAEVATELPKKTEVVIYHGMSALQKKYYKAILMKDLDAFENETAKKVKLQNILSQLRKCVDHPYLFDGVEPEPFEVGDHLTEASGKLHLLDKLLAFLYSGGHRVLLFSQMTQMLDILQDYMDYRGYSYERVDGSVRGEERHLAIKNFGQQPIFVFLLSTRAGGVGMNLTAADTVIFVDSDFNPQNDLQAAARAHRIGQNKSVKVIRLIGRDTVEEIVYRKAASKLQLTNMIIEGGHFTLGAQKPAADADLQLSEILKFGLDKLLASEGSTMDEIDLESILGETKDGQWVSDALPAAEGGSRDQEEGKNHMYLFEGKDYSKEPSKEDRKSFEQLVNLQKTLLEKASQEGRSLRNKGSVLIPGLVEGSTKRKRVLSPEELEDRQKKRQEAAAKRRRLIEEKKRQKEEAEHKKKMAWWESNNYQSFCLPSEESEPEDLENGEESSAELDYQDPDATSLKYVSGDVTHPQAGAEDALIVHCVDDSGHWGRGGLFTALEKRSAEPRKIYELAGKMKDLSLGGVLLFPVDDKESRNKGQDLLALIVAQHRDRSNVLSGIKMAALEEGLKKIFLAAKKKKASVHLPRIGHATKGFNWYGTERLIRKHLAARGIPTYIYYFPRSKSAVLHSQSSSSSSRQLVP", "notes": "ALC1 (CHD1L), full-length gene synthesized by Twist Biosciences; also called FLAG-tagged ALC1; recombinant, full-length ALC1; source: Sf9 (baculovirus), purified (anti-FLAG M2 magnetic resin, FLAG peptide elution); not shown: FLAG, N-terminal, kept"}}, "key": {"[1]": {"target": "H2BS6/H3S10ADPr4 nucleosome (UniProt P68431 22-136; P62805 1-103, H3A21C, tetra-ADP-ribose on S6 | tetra-ADP-ribose on S10)", "test": "cell-based or functional assay"}, "PARP1 SerADPr_(short)": {"target": "T1, PARP1 SerADPr_(short) (UniProt P09874 1-1014, relatively short serine-linked ADP-ribose chains; sites not told)", "T1 construct": "PARP1, full-length construct, as m15; also called serine-auto-ADP-ribosylated PARP1 with relatively short chains; automodified PARP1", "T1 sequence (P09874 whole entry)": "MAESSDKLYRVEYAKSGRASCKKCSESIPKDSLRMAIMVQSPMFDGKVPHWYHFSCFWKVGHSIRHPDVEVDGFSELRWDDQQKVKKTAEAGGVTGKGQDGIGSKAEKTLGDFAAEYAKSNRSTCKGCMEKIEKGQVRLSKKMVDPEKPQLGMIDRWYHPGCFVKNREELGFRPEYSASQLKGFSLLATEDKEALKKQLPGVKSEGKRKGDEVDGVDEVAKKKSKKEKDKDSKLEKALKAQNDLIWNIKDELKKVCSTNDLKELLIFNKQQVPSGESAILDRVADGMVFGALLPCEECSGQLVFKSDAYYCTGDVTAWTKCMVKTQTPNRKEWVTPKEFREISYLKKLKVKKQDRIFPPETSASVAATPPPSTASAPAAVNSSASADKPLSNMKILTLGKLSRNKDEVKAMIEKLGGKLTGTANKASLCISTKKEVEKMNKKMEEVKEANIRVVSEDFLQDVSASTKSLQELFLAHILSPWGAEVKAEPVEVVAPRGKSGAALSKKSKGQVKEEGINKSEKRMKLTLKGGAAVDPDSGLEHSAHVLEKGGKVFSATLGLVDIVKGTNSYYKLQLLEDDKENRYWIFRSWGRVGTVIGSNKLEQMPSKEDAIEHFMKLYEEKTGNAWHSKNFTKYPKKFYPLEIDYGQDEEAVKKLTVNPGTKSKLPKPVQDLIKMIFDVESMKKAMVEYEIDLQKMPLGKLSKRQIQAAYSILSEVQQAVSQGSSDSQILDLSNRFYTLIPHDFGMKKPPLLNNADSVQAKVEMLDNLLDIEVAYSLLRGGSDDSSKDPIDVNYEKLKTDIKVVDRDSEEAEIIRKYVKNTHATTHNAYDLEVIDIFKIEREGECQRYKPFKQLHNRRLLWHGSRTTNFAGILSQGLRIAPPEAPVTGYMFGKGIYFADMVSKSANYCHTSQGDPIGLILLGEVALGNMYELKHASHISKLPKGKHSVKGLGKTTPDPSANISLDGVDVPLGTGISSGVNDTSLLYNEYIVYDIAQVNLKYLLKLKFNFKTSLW", "test": "co-IP; purified components: 100 nM FLAG-ALC1, 50 nM unmodified or H3S10ADPr3 nucleosomes, 100 nM PARP1 (unmodified, SerADPr long or short); 100 mM KCl, 25 mM HEPES pH 7.9, 2 mM MgCl2, 5% glycerol, 0.1% NP-40, 1 mM DTT; anti-FLAG M2 magnetic resin; western blot", "conditions": "both partners purified"}, "PARP1 SerADPr_(long)": {"target": "T2, PARP1 SerADPr_(long) (UniProt P09874 1-1014, long serine-linked ADP-ribose chains; a small population of aspartate- and/or glutamate-linked ADPr; sites not told)", "T2 construct": "PARP1, full-length construct, as m15; also called serine-auto-ADP-ribosylated PARP1 with long chains; automodified PARP1", "T2 sequence (P09874 whole entry)": "as above", "test": "co-IP; purified components: 100 nM FLAG-ALC1, 50 nM unmodified or H3S10ADPr3 nucleosomes, 100 nM PARP1 (unmodified, SerADPr long or short); 100 mM KCl, 25 mM HEPES pH 7.9, 2 mM MgCl2, 5% glycerol, 0.1% NP-40, 1 mM DTT; anti-FLAG M2 magnetic resin; western blot", "conditions": "both partners purified"}}}
{"binder": "B1", "values": [{"measurement": "ALC1 remodeling rate constant relative to the unmodified nucleosome (REA assay)", "setting": "[1]", "value": "~370", "unit": "fold"}, {"measurement": "binding result", "setting": "PARP1 SerADPr_(short)", "value": "binds"}, {"measurement": "binding result", "setting": "PARP1 SerADPr_(long)", "value": "binds"}]}
